Data taken from paper PMC4762007, “Insight into Coenzyme A cofactor binding and the mechanism of acyl-transfer in an acylating aldehyde dehydrogenase from Clostridium phytofermentans” (Scientific Reports, 2016).

How the values were obtained:
Cphy1178(20–462) [1] = biological target: T1, Cphy1178(20–462) (Lachnoclostridium phytofermentans, UniProt A9KN57); test: NADH formation; assay type: biochemical; settings: substrate inhibition; 0.66 mM NAD+, 100 mM KCl, 10 mM 2-mercaptoethanol, no CoA, pH 8.0, 21 °C
T1 construct: gene Cphy_1178; E. coli BL21(DE3), pET28a; tag state not clearly stated; tetramer 4 x 47,452 Da; also misprinted as 20-426
T1 sequence (A9KN57 20-462): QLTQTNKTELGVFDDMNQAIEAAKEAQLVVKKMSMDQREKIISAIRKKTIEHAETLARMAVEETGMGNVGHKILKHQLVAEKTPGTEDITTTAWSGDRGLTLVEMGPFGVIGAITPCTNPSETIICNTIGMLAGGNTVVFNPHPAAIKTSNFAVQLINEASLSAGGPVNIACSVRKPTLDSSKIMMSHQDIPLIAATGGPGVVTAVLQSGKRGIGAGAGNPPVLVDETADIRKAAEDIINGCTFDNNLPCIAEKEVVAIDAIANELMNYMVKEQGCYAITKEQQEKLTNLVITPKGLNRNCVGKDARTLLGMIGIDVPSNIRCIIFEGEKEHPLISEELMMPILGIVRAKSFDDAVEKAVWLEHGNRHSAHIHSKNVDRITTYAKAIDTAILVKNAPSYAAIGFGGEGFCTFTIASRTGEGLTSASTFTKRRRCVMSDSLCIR

[2] = biological target: Cphy1178(20–462), acylating aldehyde dehydrogenase from the Clostridium phytofermentans fucose/rhamnose utilisation BMC, N-terminal truncation (Clostridium phytofermentans); test: native MS; solution-phase disassembly: tetramer disrupted by addition of 40% methanol (v/v) prior to MS analysis; tetramer to dimers and monomers
[3] = biological target: Cphy1178(20–462), acylating aldehyde dehydrogenase from the Clostridium phytofermentans fucose/rhamnose utilisation BMC, N-terminal truncation (Clostridium phytofermentans); test: native MS; nano-ESI ion-mobility MS (Synapt G2); protein buffer-exchanged into 100 mM ammonium acetate pH 7.0; tetramer
[4] = biological target: Cphy1178(20–462), acylating aldehyde dehydrogenase from the Clostridium phytofermentans fucose/rhamnose utilisation BMC, N-terminal truncation (Clostridium phytofermentans); test: crystal structure; X-ray, space group I 41 2 2, one chain in the asymmetric unit; tetramer generated by crystal symmetry (D2); crystals from 0.1 M sodium acetate pH 4.7, 1.8 M ammonium sulphate, soaked with 10 mM NAD+
Cphy1178(20–462) [5] = biological target: T1, Cphy1178(20–462); test: LC-MS detection of propionyl-CoA; assay type: biochemical; settings: 100 µM CoA, 75 µM NAD+, 10 mM propionaldehyde, 100 mM KCl, pH 8.0, room temperature
Cphy1178(20–462) [6] = biological target: T1, Cphy1178(20–462); test: LC-MS; assay type: biochemical; settings: 100 µM CoA, 75 µM NAD+, 10 mM propionaldehyde, 100 mM KCl, pH 8.0, room temperature
purified protein [7] = substrate: CCCCCC=O; test: purified protein; settings: 0.66 mM NAD+, 100 mM KCl, 10 mM 2-mercaptoethanol, no CoA, pH 8.0, 21 °C
purified protein [8] = substrate: CCCC=O; test: purified protein; assay type: biochemical, Lachnoclostridium phytofermentans; settings: 0.66 mM NAD+, 100 mM KCl, 10 mM 2-mercaptoethanol, no CoA, pH 8.0, 21 °C
purified protein [9] = substrate: CCCCC=O; test: purified protein; assay type: biochemical, Lachnoclostridium phytofermentans; settings: 0.66 mM NAD+, 100 mM KCl, 10 mM 2-mercaptoethanol, no CoA, pH 8.0, 21 °C
purified protein [10] = substrate: CC=O; test: purified protein; assay type: biochemical, Lachnoclostridium phytofermentans; settings: 0.66 mM NAD+, 100 mM KCl, 10 mM 2-mercaptoethanol, no CoA, pH 8.0, 21 °C
purified protein [11] = substrate: CCC=O; test: purified protein; assay type: biochemical, Lachnoclostridium phytofermentans; settings: 0.66 mM NAD+, 100 mM KCl, 10 mM 2-mercaptoethanol, no CoA, pH 8.0, 21 °C

For `CCCCCC=O` [Hexanaldehyde], the “Ki” value (Cphy1178(20–462) [1]) was 23.52 ± 1.28 mM.

In the case of “Cphy1178(20–462), acylating aldehyde dehydrogenase from the Clostridium phytofermentans fucose/rhamnose utilisation BMC, N-terminal truncation (enzyme)”, the stoichiometry N [2] is reported as 2, the stoichiometry N [3] is reported as 4 and the stoichiometry N [4] is reported as 4.

For `CCCCC=O` [Pentanaldehyde], the “Ki” value (Cphy1178(20–462) [1]) was 12.61 ± 0.46 mM.

For `CC(C)(COP(=O)(O)OP(=O)(O)OC[C@H]1O[C@@H](n2cnc3c(N)ncnc32)[C@H](O)[C@@H]1OP(=O)(O)O)[C@@H](O)C(=O)NCCC(=O)NCCS` [CoA], the “LC-MS detection of propionyl-CoA” value (Cphy1178(20–462) [5]) was “reaction mixtures containing NAD^+ and CoA”.

For `CCC(=O)SCCNC(=O)CCNC(=O)[C@H](O)C(C)(C)COP(=O)(O)OP(=O)(O)OC[C@H]1O[C@@H](n2cnc3c(N)ncnc32)[C@H](O)[C@@H]1OP(=O)(O)O` [propionyl-CoA], the LC-MS (Cphy1178(20–462) [6]) was “LC-MS analysis confirmed the presence of the propionyl-CoA product”.

In the case of `CCC=O` [Propionaldehyde], the “Ki” value (Cphy1178(20–462) [1]) is reported as 17.31 ± 0.46 mM.

B1: Cphy1178(20–462) (Lachnoclostridium phytofermentans ISDg) (protein)
chain: QLTQTNKTELGVFDDMNQAIEAAKEAQLVVKKMSMDQREKIISAIRKKTIEHAETLARMAVEETGMGNVGHKILKHQLVAEKTPGTEDITTTAWSGDRGLTLVEMGPFGVIGAITPCTNPSETIICNTIGMLAGGNTVVFNPHPAAIKTSNFAVQLINEASLSAGGPVNIACSVRKPTLDSSKIMMSHQDIPLIAATGGPGVVTAVLQSGKRGIGAGAGNPPVLVDETADIRKAAEDIINGCTFDNNLPCIAEKEVVAIDAIANELMNYMVKEQGCYAITKEQQEKLTNLVITPKGLNRNCVGKDARTLLGMIGIDVPSNIRCIIFEGEKEHPLISEELMMPILGIVRAKSFDDAVEKAVWLEHGNRHSAHIHSKNVDRITTYAKAIDTAILVKNAPSYAAIGFGGEGFCTFTIASRTGEGLTSASTFTKRRRCVMSDSLCIR
notes: E. coli BL21(DE3), pET28a; tag state not clearly stated; tetramer 4 x 47,452 Da; also misprinted as 20-426
B1 gave a Km (purified protein [7]) of 2900 ± 100 µM, a kcat (purified protein [7]) of 5.61 s⁻¹ and a kcat/Km (purified protein [7]) of 1930 M⁻¹ s⁻¹. It also gave a Km (purified protein [8]) of 1740 ± 70 µM, a kcat (purified protein [8]) of 3.44 ± 0.7 s⁻¹ and a kcat/Km (purified protein [8]) of 1980 M⁻¹ s⁻¹. The Km (purified protein [9]) was 2200 ± 700 µM, the kcat (purified protein [9]) was 5.44 ± 0.1 s⁻¹ and the kcat/Km (purified protein [9]) was 2470 M⁻¹ s⁻¹. The Km (purified protein [10]) was 5160 ± 100 µM, the kcat (purified protein [10]) was 1.62 ± 0.02 s⁻¹ and the kcat/Km (purified protein [10]) was 310 M⁻¹ s⁻¹. For the same molecule, the Km (purified protein [11]) was 820 ± 20 µM, the kcat (purified protein [11]) was 3.45 ± 0.03 s⁻¹ and the kcat/Km (purified protein [11]) was 4210 M⁻¹ s⁻¹.
